The nanobody polyreactivity screen of Harvey et al. (2022)

Assay: yeast display, Sf9 membrane polyspecificity reagent, FACS + sequencing; frameworks hold sequencing errors
How it was run: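 A synthetic nanobody library was expressed on Saccharomyces cerevisiae BJ5465 by galactose induction for 36–48 hours. The library was stained for 1 hour at 4 °C with 10% biotinylated, detergent-solubilized Sf9 membrane reagent and enriched with streptavidin microbeads before FACS. Low and high (top ~1%) gates were set on anti-HA fluorescence for expression and streptavidin fluorescence for reagent binding, and each polyreactivity label reflects the gate of origin.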

Sequence | polyreactivity (PSR sort gate)
QVQLVESGGGLVQAGGSLRLSCAASGSIFEPNAMGWYSQAPGKERELVAAISWNDGDTYYADSVKGRFTISRDNAKNTVYLQMNSLKPEDTAVYYCAAETGYAFDYWGQGTQVTVSS | low polyreactivity
QVQLVESGGGLVQAGGSLRLSCAASGRIFRVYAMGWYRQAPGKERELVAAISYSGGSTYYADSVKGRFTISRDNAKNTVYLQMNSLKPEDTAVYYCAAIRRSSKESKGTNPYEYWGQGTQVTVSS | high polyreactivity
QVQLVESGGGLVQAGGSLRLSSAASGSTSDNAMGWYRQAPGKEMEFVAAITSSGGSTTYADSVKGRFTISRDNAKNTVYLQMNSLKPEDTAVYYCNAGRVYYSNGYDYWGQGTQVTVSS | low polyreactivity
QVQLVESGGGLVQAGGSLRLSCAASGRIYSYYAMGWYRQAPGKERELVATINSGGSTNYADSVNGRFTISRDNAKNTVYLQMKSLKPEDTAVYYCGALRDRDITVYYDTGRMYYWGQGTQVNVSS | low polyreactivity
QVQLVESGGGLVQAGGSLRLSCAASGYIFVYNAMGWYRQAPGKERELVAAISTTGGRTYYADSVKGRFTISRDNAKNTVYLLMNSLKPEDTAVYYCAARAYYAWTLFGYWGQGTQVTVSS | high polyreactivity
QVQLVESGGGLVQAGGSLRLICAASGSTLDKYAMGWDRPAPGKERELVAAISSSGGSTYYADSVKGRFTISRDNAKNTVYLQMNSLKPEDTAVYYCAARFFRGRYLDDYWGQGTQVTVSS | high polyreactivity
QVQLVESGGGLVQAGGSLRLSCAASGSTFSTNAMGWFIQAPGKARELVAGISRSGGRTYYADSVKGRFTISRDNAKTTVYLQMNSLKPEETAVYYSNAVRRFASPSPHYYWGQGTQVTLSS | high polyreactivity
QVQLVESGGGLVQSGGSLRLSCAASGSILKPYAMGWYRQAPGKERELVAAIRSSGGRTNYADSVKGRFTISRDNAKNSVYLQMNSLKPEDTAVYYCAAGYVSYWYYRYDYWGQGTQVTVSS | high polyreactivity
QVQLVESGGCLVQAGGSLRLSCAASGGTFSRNAMGWYRQAPGKERELVAAINSSGVSTSYAYSVKGRFTISRDNEKNTVYLQMNSLKPEDTAFYYCAAETSSAEVDYWGQGTQVTVSS | low polyreactivity
QVQLVESGGGLVQAGGSLRLSCAASGSTFKYYAMGWYRQAPGKEREFVAAITANGGRTYYADSVKGRFTISRDNAKNTVYLQMNSLKPEDTAVYYCAARTWYYYVYGYESWGQGTQVTVSS | high polyreactivity
QVQLVESGGGLVQAGGSLRLSCAASGSILSYNAMGWSRQAPGKERELVATITGTGGSTRYADSVKGRFTISRDNAKNTVYLQMNSLKPEDTAVYYCATAAWWYYRIYHEFGYWGQGTQVTVSS | high polyreactivity
QVQLVESGGGLVHAGGRLRLRCAASGSIFGYYAMAWYRHAPGKETELVAAISRRGGRTYYADSVKGRFTISRDNAKNTVYLQMNSLKPEDTAVYYCAKDRYYSELQYPYYRGDYWGQGTQVTVSS | high polyreactivity
QVQLVESGGGLVQAGGSLRLSCAASGSIFYSYAMGWYRQAPGKERELVAAITTGGSTYYADSVKGRFTISRDNAKNTVYLQMNSLKPEDTAVYYCAADFKPTVTNEPKELDYWGQGTQVTVSS | low polyreactivity
QDQLVESGGGLVQAGGSLRLICAASGYIFVYNAMGWYRQTPWKERELVAAITDGGGSTYADSVKGRFTISRDNAKNSVYLQMNSLKPEDTAVYYCSARYSDTTWYVLYYYWGQGTQVTVSS | low polyreactivity
QVQLVESGGGLVQAGGSLRLSCAASGRIFQYYDMGWYRQAPGKERELVAAITFSGGSTYYADSVKGRFTISRDNAKNTVYLQMNSLKPEDTAVYYCARGYWVYYPDGDYWGQGTQVTVSS | low polyreactivity
QVQLVESGGGLVQAGGSLRLSCAASGITFSYNAMGWYRQAPGKERELVAAISDIGGSTYYADSVKGRFTISRDNAKITVYLQMNSLKPEDTAVYYCAADEYYQDEYDYWGQGTQVTVSS | low polyreactivity
QVQLVESGGGLVQAGGSLRLSCAASGRIFGHYAMGWYRQAPGKERELVAAISRGGSTYYADSVKGRFTISRDNAKNTVYLQMNSLKPEDTAVYYCNTTKAYGSLWWRGDYWGQGTQVTVSA | high polyreactivity
